# Assay results: patent US20240209061A1, “FUSION PROTEINS AND USES THEREOF” (Pfizer Inc., priority 2020, published 2024)
# Experiments:
# [1] = Thermal forced aggregation (SEC); type: physicochemical; settings: 24 hours, PBS
# Experimental: To assess the aggregation propensity of variant CD80-Fc fusion proteins, 1 mg/ml of CD80-Fc fusion protein was incubated in PBS at increasing temperatures for 24 hours. The samples were analyzed by SEC on an Agilent 1100 (Agilent Technologies, Germany) HPLC system using a YMC-Pack Diol-200 (YMC, Germany) analytical size exclusion chromatography column and PBS supplemented to 400 mM NaCl as running buffer. % aggregation was calculated from the loss of intact peak area. […] ND=Not Determined.
# [2] = Viscosity (Anton Paar rheometer); type: physicochemical; settings: 20 mM histidine, 8.5% sucrose, pH 5.8
# Experimental: The viscosity of CD80-Fc fusion proteins was assessed at various concentrations. Lower viscosity is desired for subcutaneous administration, and providing optimal syringeability and minimal pain to patients. Viscosity was measured using an Anton Paar rheometer and a CP-25 measuring system at 150 rpm. The sample comprised CD80-Fc fusion proteins in 20 mM histidine and 8.5% sucrose at pH 5.8.
# [3] = test system: peripheral blood mononuclear cells (PBMC); assay: RESTORE cytokine release assay in absence of TCR stimulation; type: cell-based, human; parameters: IFNγ: unit not given beside the values
# Experimental: The ability of variant CD80-Fc fusion proteins to promote cytokine release in the absence of TCR stimulation was assessed in the RESTORE (RESetting T cells to Original Reactivity) assay (Römer et al, Blood, 2011). Freshly isolated peripheral blood mononuclear cells (PBMC) from whole blood of several healthy donors were cultured for 48 hours at […] within RPMI1640 media supplemented with 10% autologous plasma, 10 mM HEPES, 1× GlutaMAX, 1× PenStrep, beta2-mercaptoethanol, NEAA and sodium pyruvate. Following the 48-hour incubation, PBMC were pelleted and resuspended at a final concentration of 10^6/ml with indicated soluble drug. Treatment was allowed for 48 hours then supernatant was harvested and assessed in IL-2 and IFNγ ELISA according to manufacturer's protocol (BioLegend).
# Positive controls included CD28 superagonist anti-CD28 clone TGN1412 as IgG1 and IgG4 isotypes and anti-CD3. […] Values shown are the average of 3 technical replicates. D=Donor.
# [4] = test system: Renca murine renal carcinoma tumor cells; assay: Renca murine renal carcinoma model; type: in vivo, mouse; settings: for % tumor growth inhibition: Day 18; for # IFNγ-producing spots (splenic tumor-reactive T cells): spleen Day 9, average of n = 4 mice
# Experimental: Renca murine renal carcinoma tumor cells (1 million) were subcutaneously implanted in the hind flank of female Balb/c mice. Five days after tumor implantation, PBS vehicle control or variant CD80-Fc fusion proteins were dosed intravenously at 0.3 and 1 mg/kg (on Day 0 and Day 3) or 3 mg/kg (Day 0, Day 3 and Day 6). Tumor volume was determined by caliper measurements obtained in 2 dimensions and calculated as width^2×length/2. Error bars are depicted as ±SEM.
# Pharmacodynamic (PD) modulation with variant CD80-Fc fusion proteins was assessed by measuring tumor-reactive T cells in the spleen using IFNγ ELIspot. Single-cell suspensions were generated from dissociated spleens taken at Day 9 after the first dose of CD80-Fc. Splenocytes were incubated with irradiated tumor cells overnight at 37° C., and the number of IFNγ-producing spots were measured using the IFNγ ELIspot Kit (BD Biosciences #551083).
# Cytotoxic CD8^+ T cells are responsible for killing cancer cells and the measurement of CD8^+ T cells that have infiltrated tumors commonly correlates with efficacy for immune-oncology therapies. For all in vivo studies, tumors were collected ˜1 week after the first dose and dissociated by mincing, followed by incubation in an enzymatic digestion cocktail and homogenization. The resulting cell suspension was filtered and washed, and single cells were stained with antibodies to CD45, CD8, and a viability dye to detect tumor-infiltrating lymphocytes (TILs) by flow cytometry. Data were acquired on a BD LSRFortessa flow cytometer or a Cytek Aurora spectral flow cytometer. Table 31 and FIG. 18 show the amount of tumor-infiltrating CD8+ T cells expressed as a percentage of total immune cells (CD45+). Each value is the average of n=4 mice per group. Treatment with all variant CD80-Fc fusion proteins led to increase in CD8+ TILs in various tumor models.
substance,measurement,setting,value
CD80-WT-Fc: wild-type human CD80 extracellular domain fused to human IgG1 Fc (C220S) [reference compound],% aggregation,"[1]; Table 11, 40° C.",18.0%
same,% aggregation,"[1]; Table 11, 45.3° C.",45.4%
same,% aggregation,"[1]; Table 11, 49.4° C.",50.8%
same,% aggregation,"[1]; Table 12, 40° C.",0.6%
same,% aggregation,"[1]; Table 12, 45.3° C.",64.9%
same,% aggregation,"[1]; Table 12, 49.4° C.",83.4%
same,Viscosity,[2]; 101.65 mg/ml,35.7 cP
same,Viscosity,[2]; 132.25 mg/ml,158.8 cP
same,IFNγ,"[3]; Table 20, D222, 1 μg/ml",4.3
same,IL-2,"[3]; Table 20, D222, 1 μg/ml",7.7
same,IFNγ,"[3]; Table 20, D222, 10 μg/ml",3.3
same,IL-2,"[3]; Table 20, D222, 10 μg/ml",9.3
same,IFNγ,"[3]; Table 20, D281, 1 μg/ml",3.0
same,IL-2,"[3]; Table 20, D281, 1 μg/ml",3.0
same,IFNγ,"[3]; Table 20, D281, 10 μg/ml",3.3
same,IL-2,"[3]; Table 20, D281, 10 μg/ml",2.0
same,IFNγ,"[3]; Table 20, D462, 1 μg/ml",6.0
same,IL-2,"[3]; Table 20, D462, 1 μg/ml",1.7
same,IFNγ,"[3]; Table 20, D462, 10 μg/ml",7.3
same,IL-2,"[3]; Table 20, D462, 10 μg/ml",2.0
same,IFNγ,"[3]; Table 20, D547, 1 μg/ml",4.0
same,IL-2,"[3]; Table 20, D547, 1 μg/ml",9.0
same,IFNγ,"[3]; Table 20, D547, 10 μg/ml",3.3
same,IL-2,"[3]; Table 20, D547, 10 μg/ml",5.3
same,IL-2,"[3]; Table 21, D132, 1.9 μg/ml",0.0
same,IL-2,"[3]; Table 21, D132, 5.6 μg/ml",0.0
same,IL-2,"[3]; Table 21, D132, 16.7 μg/ml",0.3
same,IL-2,"[3]; Table 21, D149, 1.9 μg/ml",0.3
same,IL-2,"[3]; Table 21, D149, 5.6 μg/ml",4.3
same,IL-2,"[3]; Table 21, D149, 16.7 μg/ml",0.0
same,IL-2,"[3]; Table 21, D149, 50 μg/ml",0.0
same,IL-2,"[3]; Table 21, D379, 1.9 μg/ml",3.3
same,IL-2,"[3]; Table 21, D379, 50 μg/ml",0.3
same,IL-2,"[3]; Table 21, D399, 1.9 μg/ml",0.0
same,IL-2,"[3]; Table 21, D399, 5.6 μg/ml",0.0
same,IL-2,"[3]; Table 21, D399, 16.7 μg/ml",0.0
same,IL-2,"[3]; Table 21, D399, 50 μg/ml",3.0
same,IL-2,"[3]; Table 21, D417, 1.9 μg/ml",5.7
same,IL-2,"[3]; Table 21, D417, 5.6 μg/ml",10.7
same,IL-2,"[3]; Table 21, D417, 16.7 μg/ml",0.3
same,IL-2,"[3]; Table 21, D417, 50 μg/ml",0.3
same,IL-2,"[3]; Table 21, D518, 1.9 μg/ml",4.7
same,IL-2,"[3]; Table 21, D518, 5.6 μg/ml",4.7
same,IL-2,"[3]; Table 21, D518, 16.7 μg/ml",1.3
same,IL-2,"[3]; Table 21, D518, 50 μg/ml",2.7
same,IFNγ,"[3]; Table 22, D132, 1.9 μg/ml",14.3
same,IFNγ,"[3]; Table 22, D132, 5.6 μg/ml",0.0
same,IFNγ,"[3]; Table 22, D132, 16.7 μg/ml",0.0
same,IFNγ,"[3]; Table 22, D132, 50 μg/ml",12.3
same,IFNγ,"[3]; Table 22, D149, 5.6 μg/ml",0.0
same,IFNγ,"[3]; Table 22, D149, 16.7 μg/ml",0.0
same,IFNγ,"[3]; Table 22, D149, 50 μg/ml",5.7
same,IFNγ,"[3]; Table 22, D379, 1.9 μg/ml",0.3
same,IFNγ,"[3]; Table 22, D379, 5.6 μg/ml",0.0
same,IFNγ,"[3]; Table 22, D379, 16.7 μg/ml",0.0
same,IFNγ,"[3]; Table 22, D379, 50 μg/ml",0.0
same,IFNγ,"[3]; Table 22, D399, 1.9 μg/ml",0.0
same,IFNγ,"[3]; Table 22, D399, 5.6 μg/ml",0.0
same,IFNγ,"[3]; Table 22, D399, 16.7 μg/ml",0.0
same,IFNγ,"[3]; Table 22, D399, 50 μg/ml",18.3
same,IFNγ,"[3]; Table 22, D417, 1.9 μg/ml",0.0
same,IFNγ,"[3]; Table 22, D417, 5.6 μg/ml",146.7
same,IFNγ,"[3]; Table 22, D417, 16.7 μg/ml",13.3
same,IFNγ,"[3]; Table 22, D417, 50 μg/ml",0.0
same,IFNγ,"[3]; Table 22, D518, 1.9 μg/ml",0.0
same,IFNγ,"[3]; Table 22, D518, 5.6 μg/ml",0.0
same,IFNγ,"[3]; Table 22, D518, 16.7 μg/ml",0.0
same,IFNγ,"[3]; Table 22, D518, 50 μg/ml",0.0
same,Number of tumor-free mice,[4]; 0.3 mg/kg,5/10
same,Day 18 tumor volume,"[4]; 0.3 mg/kg IV, Day 0 and 3",199.0 ± 114.0 mm^3
same,% tumor growth inhibition,[4]; 0.3 mg/kg,85.6%
same,# IFNγ-producing spots (splenic tumor-reactive T cells),[4]; 0.3 mg/kg,373.67
same,Number of tumor-free mice,[4]; 1 mg/kg,5/10
same,Day 18 tumor volume,"[4]; 1 mg/kg IV, Day 0 and 3",79.6 ± 25.5 mm^3
same,% tumor growth inhibition,[4]; 1 mg/kg,96.2%
same,# IFNγ-producing spots (splenic tumor-reactive T cells),[4]; 1 mg/kg,271.08
same,Number of tumor-free mice,[4]; 3 mg/kg,6/7
same,Day 18 tumor volume,"[4]; 3 mg/kg IV, Day 0, 3 and 6",73.0 ± 69.0 mm^3
same,% tumor growth inhibition,[4]; 3 mg/kg,93.7%
same,# IFNγ-producing spots (splenic tumor-reactive T cells),[4]; 3 mg/kg,288.5
same,CD8^+ T cell infiltrates (% CD45),"[4]; Renca, 3 mg/kg, ~1 week after first dose, n=4",38.6 % CD45
